Test results reported in US9850300B2, “Compositions and methods relating to inhibiting cancer cell growth and/or proliferation” (The Regents of the University of Michigan, priority 2013, dated 2017).
Entries after “also recorded” stand apart in the source; their conditions may differ.

Experiments:
Format in all cases: cell-based
cellular migration = experiment: In vitro scratch test wound healing assay; conditions: EGFL6 treated cells
[1] = tested on: phosphorylation of SHP2, ERK, FAK and SRC in SKOV3 cells; experiment: Western blot of EGFL6 mediated signal activation
Protocol: Lastly, EGFL6 mediated signal activation was evaluated. Integrin signaling has been reported to induce the […] of FAK, SRC and SHP2 among others. […] Phosphorylation of all of these proteins could be blocked with Echistatin.
Cellular signaling changes associated with EGFL6 was next examined. […] EGFL6 treatment was associated with increased p-SHP2 levels specifically in ALDH^+ cells (FIG. 4Ei). […] SHP2 phosphorylation could be blocked with Echistatin (FIG. 4Eiii) or an EGFL6-blocking antibody. SHP2 phosphorylation was associated with increased p-ERK levels (4Ei-iii).
SKOV3, A2008, and A2780 were maintained in RPMI-1640, supplemented with 10% FBS with 1% Penicillin/Streptomycin, and cultured in humidified atmosphere of 5% CO2 at 37° C. For all in vitro cell culture experiments, isolated cells were allow to recover overnight following FACS, prior to treatment. Infantile Hemangioma Stem cells were maintained in EBM-2 medium with growth factor supplement cocktails in culture plates coated with fibronectin. For Echistatin and EGFL6 treatment, cells were pretreated with Echistatin (Sigma, 100 nM) for 24 hours prior to EGFL6 treatment. All transfections were performed using FuGene6 reagent (Promega) per company protocol.
EGFL6 monoclonal antibody producing hybridoma cells were maintained in RPMI medium supplemented with 10% FBS. For antibody purification, the cells were cultured in reduced FBS (5%). Culture supernatant was collected and cell debris was removed by centrifugation. EGFL6 antibody was pulled down using Protein G Agarose heeds, Fast Flow (Millipore), washed and eluded with 50 mM glycine PH.2.7. Antibody solution was immediately neutralized to PH 7.2-7.4 with Tris (Ph 9.0, final concentration 25 mM). NaCl was added to final concentration of 150 mM. EGFL6 antibody was applied at 5 μg/ml for in vitro cell treatment and 50 μg/mouse for in vivo treatment.

[2] = tested on: Human ovarian cancer ascites cells; experiment: Tumor sphere assay, ALDH+ cell percentages; conditions: EGFL6 treatment
Text: It has been shown that aldehyde dehydrogenase enzymatic activity (ALDH) is an excellent marker of ovarian CSCs in SKOV3 cells and primary patient samples (see, e.g., Silva, I. A., et al. Cancer Res (2011); Landen, C. N., Jr., et al. Mol Cancer Ther 9, 3186-3199 (2010); Steg, A. D., et al. Clin Cancer Res 18, 869-881 (2012); Kryczek, I., et al. Int J Cancer 130, 29-39 (2012); Deng, S., et al. PLoS ONE 5, e10277 (2010)). The impact of EGFL6 treatment on the percentage of ALDH^+ CSCs in vitro was next assessed. […] However, given the increase in total cell numbers, the absolute ALDH^+ CSC number remained unchanged (FIG. 3Aiii). […] Human ovarian cancer ascites cells were also treated with EGFL6 in a tumor sphere assay. Once again, treatment with EGLF6 was associated with a reduction in ALDH^+ cell percentages in tumor spheres (FIG. 3B).
Sphere culture was performed as previously described (see, e.g., Silva, I. A., et al. Cancer Res (2011)). Briefly, single cell suspensions were plated in triplicate in ultra-low attachment plates (Corning, Acton, Mass., USA) in serum-free MEBM-2 (Lonza). Cells were plated at the indicated density and from 1,000-10,000 cells/ml in subsequent passage. Sphere formation was assessed 2 weeks after seeding cells.

SKOV3 cells = experiment: Cell cycle analysis (propidium iodine, FACS); conditions: EGFL6 treatment 24 hrs after serum starvation
Protocol: SKOV3 cells were seeded at 5×10^5 in 6 cm culture plates, synchronized by serum starvation for 24 hrs, then treated with EGFL6 or control for 24 hrs. Cells were fixed with ice-cold alcohol, washed with PBS, and stained with propidium iodine ([…]) and RNase A (100 ug/ml) in PBS for 1 hr at 30° C. Cell cycle profile was acquired by FACS analysis and data were analyzed by Flowjo.

[3] = tested on: ALDH+ and ALDH(−) SKOV3 cells; experiment: Single cell microfluidic culture, cell division type
Protocol: To determine if EGFL6 is promoting asymmetric division, a novel microfluidic culture device was used which allows the isolation, confirmation, and culture of individual cells. ALDH^+ and ALDH^(−) SKOV3 cells were FACS-sorted into separate microfluidic devices (see, e.g., Chung, J., Kim, Y. J. & Yoon, E. Appl Phys Lett 98, 123701 (2011)), and confirmed ALDH expression with fluorescent microscopy (FIG. 3Di). Cells were then mock-treated or treated with EGFL6. After 48 hours, live cells were stained using ALDEFLUOR and re-imaged using fluorescent microscopy (FIG. 3Dii, right panels). Cell divisions, type of daughter cell (ALDH^(−) or ALDH^+), and total cell number were assessed. […] Production of ALDH^+ daughter cells from ALDH^(−) cells was not observed. […] This was associated with a statistically significant increase in total cell numbers; 6.5 versus 3.7 average cells/well and total 325 vs. 185 total cells/50 captured cells in EGFL6 treated and control ALDH^(+) cells respectively.

[4] = ALDH+ SKOV3 cells, EGFL6 treated

B1: EGFL6: recombinant EGFL6-flag protein from transfected HEK293 cells, used purified or as 72 hr supernatant (protein)
chain: NAASARHHGLLASARQPGVCHYGTKLACCYGWRRNSKGVCEATCEPGCKFGECVGPNKCRCFPGYTGKTCSQDVNECGMKPRPCQHRCVNTHGSYKCFCLSGHMLMPDATCVNSRTCAMINCQYSCEDTEEGPQCLCPSSGLRLAPNGRDCLDIDECASGKVICPYNRRCVNTFGSYYCKCHIGFELQYISGRYDCIDINECTMDSHTCSHHANCFNTQGSFKCKCKQGYKGNGLRCSAIPENSVKEVLRAPGTIKDRIKKLLAHKNSMKKKAKIKNVTPEPTRTPTPKVNLQPFNYEEIVSRGGNSHGGKKGNEEKMKEGLEDEKREEKALKNDIEERSLRGDVFFPKVNEAGEFGLILVQRKALTSKLEHKDLNISVDCSFNHGICDWKQDREDDFDWNPADRDNAIGFYMAVPALAGHKKDIGRLKLLLPDLQPQSNFCLLFDYRLAGDKVGKLRVFVKNSNNALAWEKTTSEDEKWKTGKIQLYQGTDATKSIIFEAERGKGKTGEIAVDGVLLVSGLCPDSLLSVDD
increase in the rate of wound closure (cellular migration): 40% | p-FAK levels ([1]; EGFL6 treated SKOV3 cells): modest increase | p-SRC levels ([1]; EGFL6 treated SKOV3 cells): modest increase | p-SHP2 levels ([1]; treatment of ALDH+ SKOV3 cells): further increase; also recorded: increased | p-ERK levels ([1]; treatment of ALDH+ and ALDH(−) cells): increase p-ERK | ALDH+ cell percentages in tumor spheres [2]: reduction | decrease in the number of cells in G1 phase (SKOV3 cells): ~20% | number of cells in S and G2/M phases (SKOV3 cells): concomitant increase | number or type of cell divisions of ALDH(−) cells ([3]; ALDH(−) SKOV3 cells, 48 hours): no significant impact | increase in the percentage of ALDH+ cells undergoing asymmetric division ([3]; ALDH+ SKOV3 cells, 48 hours, vs mock-treated): 2 fold | average cells/well [3, 4]: 6.5 cells/well | total cells/50 captured cells [3, 4]: 325 total cells/50 captured cells
